Assay results reported in US20160264634A1.

Tests used:
mKv1.1 channel (mouse) = mKv1.1 channel (mouse) (UniProt P16388); assay: cell-based or functional assay
mKv1.3 channel (mouse) = mKv1.3 channel (mouse) (UniProt P16390); assay: cell-based or functional assay
mKv1.3 channel (mouse), sequence (P16390 whole entry): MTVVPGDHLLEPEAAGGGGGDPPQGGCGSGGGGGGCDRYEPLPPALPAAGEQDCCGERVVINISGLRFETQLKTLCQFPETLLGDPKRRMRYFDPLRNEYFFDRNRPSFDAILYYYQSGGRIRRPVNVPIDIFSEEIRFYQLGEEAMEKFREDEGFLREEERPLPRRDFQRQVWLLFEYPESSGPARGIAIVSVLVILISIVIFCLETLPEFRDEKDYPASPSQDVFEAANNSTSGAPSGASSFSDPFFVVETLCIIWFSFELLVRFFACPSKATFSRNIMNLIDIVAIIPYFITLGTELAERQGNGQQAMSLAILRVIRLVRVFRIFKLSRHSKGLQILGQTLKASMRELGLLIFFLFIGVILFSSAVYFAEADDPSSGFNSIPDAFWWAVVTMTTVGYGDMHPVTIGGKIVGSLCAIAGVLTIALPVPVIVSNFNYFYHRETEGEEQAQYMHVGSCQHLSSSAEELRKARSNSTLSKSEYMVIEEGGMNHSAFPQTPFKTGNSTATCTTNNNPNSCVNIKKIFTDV

mKv1.1 channel (mouse), sequence (P16388 whole entry): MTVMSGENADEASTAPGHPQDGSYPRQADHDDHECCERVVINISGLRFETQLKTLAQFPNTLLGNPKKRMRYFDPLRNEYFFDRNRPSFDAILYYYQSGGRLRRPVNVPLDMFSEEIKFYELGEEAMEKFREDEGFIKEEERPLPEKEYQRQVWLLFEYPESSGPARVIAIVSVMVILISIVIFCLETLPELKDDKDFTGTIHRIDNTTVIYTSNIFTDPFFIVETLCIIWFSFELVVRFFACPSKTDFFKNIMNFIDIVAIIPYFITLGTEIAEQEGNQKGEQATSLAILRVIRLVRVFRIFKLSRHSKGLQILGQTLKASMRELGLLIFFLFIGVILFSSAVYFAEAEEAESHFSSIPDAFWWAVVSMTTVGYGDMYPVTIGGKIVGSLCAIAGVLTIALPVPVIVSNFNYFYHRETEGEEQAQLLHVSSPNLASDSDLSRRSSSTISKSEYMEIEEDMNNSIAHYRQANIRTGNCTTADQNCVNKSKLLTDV
ShK, sequence (P29187 whole entry): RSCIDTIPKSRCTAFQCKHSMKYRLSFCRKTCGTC
ShK-K-amide, sequence (P29187 whole entry): as above

Substance	IC50 of current block, whole-cell patch-clamp (mKv1.1 channel (mouse)) [nM]	IC50 of current block, whole-cell patch-clamp (mKv1.3 channel (mouse)) [nM]
ShK (from UniProt P29187 1-35) (peptide)	0.023	0.009
ShK-K-amide (from UniProt P29187 1-35) (peptide)	–	0.026
ShK-amide (from UniProt P29187 1-35) (peptide)	0.037	0.035
